This data set deals with the molecule itself. Description: SEC. (In general: SEC sorts molecules by how far they enter the pores of the column.)

The source of these data is publication PMC3098940 (ACS chemical biology, 2011).

The term stoichiometry N denotes a count of units in the complex or per binding partner.

B1: phosphorylated Stat3β (residues 127-722), wildtype (domain or fragment, murine, UniProt P42227-2 127-722, looked up)
chain: GQANHPTAAVVTEKQQMLEQHLQDVRKRVQDLEQKMKVVENLQDDFDFNYKTLKSQGDMQDLNGNNQSVTRQKMQQLEQMLTALDQMRRSIVSELAGLLSAMEYVQKTLTDEELADWKRRQQIACIGGPPNICLDRLENWITSLAESQLQTRQQIKKLEELQQKVSYKGDPIVQHRPMLEERIVELFRNLMKSAFVVERQPCMPMHPDRPLVIKTGVQFTTKVRLLVKFPELNYQLKIKVCIDKDSGDVAALRGSRKFNILGTNTKVMNMEESNNGSLSAEFKHLTLREQRCGNGGRANCDASLIVTEELHLITFETEVYHQGLKIDLETHSLPVVVISNICQMPNAWASILWYNMLTNNPKNVNFFTKPPIGTWDQVAEVLSWQFSSTTKRGLSIEQLTTLAEKLLGPGVNYSGCQITWAKFCKENMAGKGFSFWVWLDNIIDLVKKYILALWNEGYIMGFISKERERAILSTKPPGTFLLRFSESSKEGGVTFTWVEKDISGKTQIQSVEPYTKQQLNNMSFAEIIMGYKIMDATNILVSPLVYLYPDIPKEEAFGKYCRPESQEHPEADPGSAAPYLKTKFICVTPFIDAVWK
modifications: phosphotyrosine at 705
Consider B1, for which the “stoichiometry N” value worked out at 2.
